# Source: patent publication US6946588B2, “Nucleic acid encoding a modified threonine deaminase and methods of use” (Monsanto Technology LLC, priority 1996, dated 2005)
# Key:
# [1] = test system: A. eutrophus PhbA and BktB β-ketothiolases; experiment: β-Ketothiolase condensation assay with 1-14C-acetyl-CoA (PhbA, BktB); type: biochemical; conditions: 0.30 mM acetyl-CoA
# From the text: As noted above, A. eutrophus can produce P(3HB-co-3HV) copolymer when provided with an appropriate C5 precursor. […] One of these β-ketothiolases, designated BktB herein, was encoded on plasmid pBK6. A. eutrophus BktB was obtained from E. coli DH5α transformed with plasmid pMON25754. pMON25754 was produced from the A. eutrophus pBK6 clone (Slater et al., 1988) by deleting a 5.0 kb XhoI fragment (there is an additional XhoI site approximately 5.0 kb 5′ to the XhoI site shown in FIG. 1 of Slater et al.). The pBK6 clone was produced by Slater et al. (1988) from A. eutrophus H16, i.e., ATCC accession number 17699, which is publicly available from the American Type Culture Collection, 12301 Parklawn Drive, Rockville, Md. 20852. BktB was overexpressed from its native promoter on the high copy plasmid pMON25754 by growing the cells overnight at 37° C. to stationary phase in LB broth containing ampicillin (100 μg/ml). A. eutrophus PhbA was obtained from E. coli DH5α transformed with pMON25636 (FIG. 20) by growing the cells at 37° C. in LB broth containing ampicillin (100 μg/ml) to early log phase and then inducing with IPTG. Cells were harvested after two hours of further growth.
# The activity of β-ketothiolases can be assayed in both the condensation and thiolysis directions. However, condensation activity for products that are the result of a mixed condensation of acetyl-CoA and a longer chain acyl-CoA are difficult to measure. This is due to the difficulty in distinguishing between acetoacetyl-CoA, the product of condensing two acetyl-CoA molecules, and the mixed condensation reaction product, both of which form simultaneously. To date, condensation assays have been spectrophotometrically-based, but these are valid only when there is a single acyl-CoA substrate present (i.e., acetyl-CoA) since they cannot discriminate between the products formed. The assay described below represents the first reported assay that permits complete quantitation of all condensation products regardless of the nature of starting substrates.
# β-ketothiolase assays designed to measure the condensation activity with acetyl-CoA plus either propionyl-CoA or butyryl-CoA were performed using 1-^14C-labelled acetyl-CoA. Since the equilibrium for the reaction lies heavily toward the starting acyl-CoAs rather than the condensed β-ketoacyl-CoA product, the latter was “pulled” to the corresponding β-hydroxyacyl-CoA using NADH and β-ketoacyl-CoA dehydrogenase. In addition, to avoid the strong feedback inhibition of β-ketothiolase by free CoA, each assay solution contained 5,5′-dithio-bis(2-nitrobenzoic acid) (DTNB) to trap chemically the free CoA produced by the reaction.
# The condensation assay mixture (0.5 ml final volume) contained 100 mM KPi, pH 7.8, 0.5 mM NADH, 0.30 mM 1-^14C-acetyl-CoA (0.15 μCi), 5 units β-ketoacyl-CoA dehydrogenase, 0.5 mM DTNB, and variable propionyl- or butyryl-CoA as indicated in Table 5. The reaction was initiated by the addition of β-ketothiolase. Following 20 minutes at 30° C., each reaction mixture was quenched by the addition of 25 μl of 10% formic acid. Thirty μl of 25% H2SO4 were added to 200 μl of quenched reaction mix; this mixture was then incubated at 70° C. for 24 hours to hydrolyze all CoA thioesters to their free acids. Sixty μl of 5 M sodium formate were added to the sample to neutralize the pH, followed by analysis of a 130 μl aliquot using C18-reverse-phase HPLC (0.5×25 cm column). Detection and quantitation were carried out by monitoring flow-through with a Radiomatic flow detector. A gradient elution was employed using aqueous 1% acetic acid (solvent A) and acetonitrile (solvent B). […]
# E. coli DH5α cells = experiment: PHA production by transformed E. coli DH5α on glucose and propionate (GC analysis); type: cell-based; conditions: Set 2 versus Set 1
# Protocol: E. coli DH5α cells contining both sets of plasmids expressing all of the required PHA biosynthesis enzymes were grown on 50 ml of LB broth containing all three antibiotics supplemented with 0.75% glucose and 0.15% propionate. The tac promoters were induced with IPTG at a final concentration of 0.5 mM. Nalidixic acid was added to a final concentration of 60 μg/ml. The cells were grown under antibiotic selection (see above) for 24 hours and assayed for the presence of PHA polymer. Cells were centrifuged at 7,000 rpm for 20 min., washed with 25 ml methanol, recentrifuged, washed with 15 ml hexane, and recentrifuged. Cell pellets were dried under N2 for two hours, and the dry cell weights determined. 6.5 ml of chloroform were added to extract the PHA at 100° C. for one hour. The solution was cooled and filtered through a PTFE syringe filter (13 mm diameter, 0.45 μm pore). The PHA was precipitated by the addition of 50 ml of methanol, centrifuged, and washed with hexane. The polymer was dried at 70° C. for two hours, and polymer weight was determined. Methanolysis was performed by dissolving 3-5 mg of PHA sample by the addition of 1 ml of CHCl3, with methyl benzoate as an internal standard for normalization of the data. […] The solution was then analyzed by gas chromatography as described in the section entitled “In vivo Analysis of Cloned E. coli ilvA Genes”.
# [2] = Storage stability of purified BktB; type: physicochemical; conditions: 10 mM Tris-HCl, pH 7.8, 1 mM DTT, 50% glycerol at −20° C.
# Protocol: Purified BktB protein was prepared by growing E. coli EE36 transformed with pMON25754 in LB broth containing ampicillin (100μg/ml) overnight at 37° C. Cells were then harvested by centrifugation, and the pellet was resuspended in 50 mM KPi and 5% glycerol, sonicated, and the sonicate centrifuged to remove cellular debris. The cell extract was desalted using a PD-10 column (Pharmacia), and proteins resolved using a Pharmacia FPLC system and MonoQ anion-exchange column (Pharmacia). Buffer A was 10 mM Tris buffer, pH 7.8, plus 1 mM DTT; buffer B was buffer A plus 1 M KCl. The gradient was 0 to 10% B in 10 min, then to 35% B in 40 min. The flow rate was 1 ml/min, and the resolved proteins were collected at the rate of 1 ml/fraction. The BktB protein was found in fractions 20 to 27, with the maximum activity peak at fraction 23. […] The enzyme was stored in 10 mM Tris-HCl, pH 7.8, 1 mM DTT, 50% glycerol at −20° C.
molecule,measurement,setting,value
"BktB: A. eutrophus β-ketothiolase encoded on pBK6, amino acid sequence SEQ ID NO:11 (protein, listed as Alcaligenes eutrophus) MTREVVVVSGVRTAIGTFGGSLKDVAPAELGALVVREALARAQVSGDDVGHVVFGNVIQTEPRDMYLGRVAAVNGGVTINAPALTVNRLCGSGLQAIVSAAQTILLGDTDVAIGGGAESMSRAPYLAPAARWGARMGDAGLVDMMLGALHDPFHRIHMGVTAENVAKEYDISRAQQDEAALESHRRASAAIKAGYFKDQIVPVVSKGRKGDVTFDTDEHVRHDATIDDMTKLRPVFVKENGTVTAGNASGLNDAAAAVVMMERAEAERRGLKPLARLVSYGHAGVDPKAMGIGPVPATKIALERAGLQVSDLDVIEANEAFAAQACAVTKALGLDPAKVNPNGSGISLGHPIGATGALITVKALHELNRVQGRYALVTMCIGGGQGIAAIFERI",% Turnover C4 Product,[1]; butyryl-CoA 0.6 mM,1.0%
same,% Turnover C6 Product,[1]; butyryl-CoA 0.6 mM,4.9%
same,% Turnover C4 Product,[1]; butyryl-CoA 1.2 mM,0.6%
same,% Turnover C6 Product,[1]; butyryl-CoA 1.2 mM,7.3%
same,% Turnover C4 Product,[1]; butyryl-CoA 2.4 mM,0.4%
same,% Turnover C6 Product,[1]; butyryl-CoA 2.4 mM,7.9%
same,% Turnover C4 Product,[1]; propionyl-CoA 0 mM,4.2%
same,% Turnover C4 Product,[1]; propionyl-CoA 0.6 mM,1.8%
same,% Turnover C5 Product,[1]; propionyl-CoA 0.6 mM,13.2%
same,% Turnover C4 Product,[1]; propionyl-CoA 1.2 mM,1.0%
same,% Turnover C5 Product,[1]; propionyl-CoA 1.2 mM,15.6%
same,% Turnover C4 Product,[1]; propionyl-CoA 2.4 mM,0.7%
same,% Turnover C5 Product,[1]; propionyl-CoA 2.4 mM,17.8%
same,greater percentage of the C5 monomer than cells expressing the PhbA β-ketothiolase,E. coli DH5α cells,five-to-six-fold
same,stability of activity on storage,[2],Activity remained constant for a minimum of two months
